Source: patent publication US20240293588A1, “THERAPEUTIC CONJUGATES” (Starpharma Pty Ltd, priority 2020, published 2024)

B1: BHALys[Lys]2[Lys]4[((α-NH-COPEG24NH-COPEG4(PhMeTz)/TCO-PEG3NH-COPEG24NH-Glu-DBCO/N3-Nanobody)1(α-Lys(α-NHCy5)(ε-NHDFO))1(α-NH2)2)(ε-NH-COPEG1000)4], G2, … (VHH)
VHH: EVQLVESGGSLVQPGGSLRLSCAASGFTFDDYAMSWVRQVPGKGLEWVSSINWSGTHTDYADSVKGRFTISRNNANNTLYLQMNSLKSEDTAVYYCAKNWRDAGTTWFEKSGSAGQGTQVTVSS
modifications: # (unnatural amino acid, p-azido-phenylalanine, after ...QVTVSS) clicked to the DBCO of linker Compound 51, whose TCO is joined to the tetrazine on the surface of the G2 lysine dendrimer Compound 25 (Cy5, DFO, 4 PEG1000)
notes: also called BHA-G2-PEG1000 + NB
B2: BHALys[Lys]2[Lys]4[Lys]8[((α-NH-COPEG24NH-COPEG4(PhMeTz)/TCO-PEG3NH-COPEG24NH-Glu-DBCO/N3-Nanobody)1(α-Lys(α-NHCy5)(ε-NHDFO))1(α-NH2)6)(ε-NH-COPEG1000)8], G3, … (VHH)
VHH: B1 VHH
modifications: # (unnatural amino acid, p-azido-phenylalanine, after ...QVTVSS) clicked to the DBCO of linker Compound 51, whose TCO is joined to the tetrazine on the surface of the G3 lysine dendrimer Compound 27 (Cy5, DFO, 8 PEG1000)
notes: also called BHA-G3-PEG1000 + NB
B3: BHA[Lys]2[Lys]4[Lys]8[Lys]16[((α-NH-COPEG24NH-COPEG4(PhMeTz)/TCO-PEG3NH-COPEG24NH-Glu-DBCO/N3-Nanobody)1(α-Lys(α-NHCy5)(ε-NHDFO))1(α-NH2)14(ε-NH-COPEG1000)16], … (VHH)
VHH: B1 VHH
modifications: # (unnatural amino acid, p-azido-phenylalanine, after ...QVTVSS) clicked to the DBCO of linker Compound 51, whose TCO is joined to the tetrazine on the surface of the G4 lysine dendrimer Compound 28 (Cy5, DFO, 16 PEG1000)
notes: One nanobody on each dendrimer; also called single 2D3-dendrimer conjugate; BHA-G4-PEG1000 + NB
B4: BHA[Lys]2[Lys]4[Lys]8[Lys]16[Lys]32[((α-NH-COPEG24NH-COPEG4(PhMeTz)/TCO-PEG3NH-COPEG24NH-Glu-DBCO/N3-Nanobody)1(α-Lys(α-NHCy5)(ε-NHDFO))1(α-NH2)30(ε-NH-COPEG100 … (VHH)
VHH: B1 VHH
modifications: # (unnatural amino acid, p-azido-phenylalanine, after ...QVTVSS) clicked to the DBCO of linker Compound 51, whose TCO is joined to the tetrazine on the surface of the G5 lysine dendrimer Compound 29 (Cy5, DFO, 32 PEG1000)
notes: also called BHA-G5-PEG1000 + NB
B5: [[(ε-NHCO-PEG1100)8(α-NHDOTA)4.75(α-NHCy5)0.5(α-NH2)2.75][Lys]8[Lys]4[Lys]2[Lys]-CONH-CH2-CH2-S-]2MAL-PEG3-NHCO-PEG24-CONH-PEG4-(PhTzMe)/TCO-NHCO-PEG24-(MAL)Me/ … (VHH)
VHH: B1 VHH
modifications: the additional cysteine (in …) coupled to the methylmaleimide of linker SRS-12 (intermediate SRS-14), whose TCO is joined to the tetrazine of dendrimer SRS-4-Mal (maleimide core, Cy5, DOTA, PEG1100)
B6: [(ε-NHCO-PEG1100)16(α-NHCy5)1(α-NHDOTA)8(α-NH2)7][Lys]16[Lys]8[Lys]4[Lys]2[Lys]-CONH-CH2-CH2-S-(Me)MAL-PEG24-CONH-Bn-Tz(Me)/TCO-NHCO-PEG24-(MAL)Me/Cys-Nanobody … (VHH)
VHH: B1 VHH
modifications: the additional cysteine (in …) coupled to the methylmaleimide of linker SRS-12 (intermediate SRS-14), whose TCO is joined to the tetrazine of dendron RP-5 (1 Cy5, 8 DOTA, 16 PEG1100)
B7: [(ε-NHCO-PEG1100)16(α-DOTA)7(α-NHCy5)1(α-NH2)8][Lys]16[Lys]8[Lys]4[Lys]2[Lys]-(PN)NCO-PEG24-CONH-PEG4-(PhTzMe)/TCO-NHCO-PEG24-(MAL)Me/Cys-Nanobody SRS-17 (VHH)
VHH: B1 VHH
modifications: the additional cysteine (in …) coupled to the methylmaleimide of linker SRS-12 (intermediate SRS-14), whose TCO is joined to the tetrazine of dendrimer HH-2 (1 Cy5, 7 DOTA, 16 PEG1100)
B8: [[(ε-NHCO-PEG1100)8(α-NHDOTA)4.75(α-NHCy5)0.5(α-NH2)2.75][Lys]8[Lys]4[Lys]2[Lys]-CONH-CH2-CH2-S-]2MAL-PEG3-NHCO-PEG24-CONH-PEG4-(PhTzMe)/TCO-PEG3-NHCO-PEG24-Glu … (VHH)
VHH: B1 VHH
modifications: # (unnatural amino acid, p-azido-phenylalanine, after ...QVTVSS) clicked to the DBCO of SRS-20a (linker Compound 51 on dendrimer SRS-4-Mal: maleimide core, Cy5, DOTA, PEG1100)
B9: BHALys[Lys]2[Lys]4[Lys]8[Lys]16[((α-NH-COPEG24NH-COPEG4(PhTzMe)/TCO-PEG3-NHCO-PEG24-(MAL)Me/Cys-Nanobody)1(α-NHCy5)1(α-NHDOTA))10(α-NH2)4)(ε-NH-COPEG1000)16] … (VHH)
VHH: B1 VHH
modifications: the additional cysteine (in …) coupled to the methylmaleimide of SRS-21a (linker SRS-12 on G4 dendrimer SRS-1: 1 Cy5, 10 DOTA, 16 PEG1000)
B10: [(ε-NHCO-PEG1100)16(α-DOTA)7(α-NHCy5)1(α-NH2)8][Lys]16[Lys]8[Lys]4[Lys]2[Lys]-(PN)NCO-PEG24-CONH-PEG4-(PhTzMe)/TCO-PEG3-NHCO-PEG24-Glu-DBCO/N3-Nanobody SRS-22 (VHH)
VHH: B1 VHH
modifications: # (unnatural amino acid, p-azido-phenylalanine, after ...QVTVSS) clicked to the DBCO of SRS-22a (linker Compound 51 on dendrimer HH-2: 1 Cy5, 7 DOTA, 16 PEG1100)

System: HER2-positive MDA-MB-453 cells
Experiment: Binding of 2D3-dendrimer conjugates to MDA-MB-453 cells (Cy5 MFI)
Format: cell-based, human
Settings: MDA-MB-453 cells incubated with dendrimers, triplicate wells, mean with standard deviation

Going from “(MeTzPh)PEG4CO-NHPEG24CO—[N(PN)2][Lys]2[Lys]4[Lys]8[Lys]16[((α-NHCy5)1(α-NHAc)15)(ε-NH-COPEG1100)16], G4 [Compound 53]” to “(MeTzPh)PEG4CO-NHPEG24CO—[N(PN)2][Lys]2[Lys]4[Lys]8[((α-NHCy5)1(α-NHAc)7)(ε-NH-COPEG1100)8], G3 [Compound 52]”, the “MFI (mean fluorescence intensity, Cy5)” value falls from 6.827 ± 0.07 to 3.097 ± 0.01.

In the case of “(MeTzPh)PEG4CO-NHPEG24CO—[N(PN)2][Lys]2[Lys]4[Lys]8[Lys]16[Lys]32[((α-NHCy5)1(α-NHAc)31)(ε-NH-COPEG1100)32], G5 [Compound 54]”, the “MFI (mean fluorescence intensity, Cy5)” value is reported as 4.349 ± 0.08.

Same assay, conditions: flow cytometry, result in words

With “(MeTzPh)PEG4CO-NHPEG24CO—[N(PN)2][Lys]2[Lys]4[Lys]8[Lys]16[((α-NHCy5)1(α-NHAc)15)(ε-NH-COPEG1100)16], G4 [Compound 53]” the “binding to MDA-MB-453 cells” value was “did not bind”.
In the case of “(MeTzPh)PEG4CO-NHPEG24CO—[N(PN)2][Lys]2[Lys]4[Lys]8[((α-NHCy5)1(α-NHAc)7)(ε-NH-COPEG1100)8], G3 [Compound 52]”, the “binding to MDA-MB-453 cells” value is reported as “did not bind”.
For “(MeTzPh)PEG4CO-NHPEG24CO—[N(PN)2][Lys]2[Lys]4[Lys]8[Lys]16[Lys]32[((α-NHCy5)1(α-NHAc)31)(ε-NH-COPEG1100)32], G5 [Compound 54]”, the “binding to MDA-MB-453 cells” value was “did not bind”.

System: MDA-MB-231/HER2 (HER2 knock in) cells
Experiment: In vitro association study (flow cytometry), MDA-MB-231/HER2
Format: cell-based, human
Settings: MDA-MB-231/HER2, 3.33 nM, over 24 h, mean±SD

For “(MeTzPh)PEG4CO-NHPEG24CO—[N(PN)2][Lys]2[Lys]4[Lys]8[Lys]16[((α-NHCy5)1(α-NHAc)15)(ε-NH-COPEG1100)16], G4 [Compound 53]”, the “percent of cellular association” value was “significantly lower association”.
For “(MeTzPh)PEG4CO-NHPEG24CO—[N(PN)2][Lys]2[Lys]4[Lys]8[((α-NHCy5)1(α-NHAc)7)(ε-NH-COPEG1100)8], G3 [Compound 52]”, the “percent of cellular association” value was “significantly lower association”.
For “(MeTzPh)PEG4CO-NHPEG24CO—[N(PN)2][Lys]2[Lys]4[Lys]8[Lys]16[Lys]32[((α-NHCy5)1(α-NHAc)31)(ε-NH-COPEG1100)32], G5 [Compound 54]”, the “percent of cellular association” value was “significantly lower association”.

Biological target: T1, HER2 (human epidermal growth factor receptor 2) on cells (human, UniProt P04626 23-1255)
T1 construct: whole, on cells; also called ERBB2; HER2 receptor
Experiment: flow cytometry (Cy5), MDA-MB-231/HER2 cells, 0.5 h
Settings: not given

First: B1
Second: B2
The “percent of cellular association” value of the first is lower: 190% for the first, 218% for the second.

Going from B3 to B4, the “percent of cellular association” value rises from 157% to 165%.

Biological target: T2, ErbB2-ECD (Homo sapiens, UniProt P04626)
Experiment: SPR, ErbB2-ECD amine-coupled on chip, analyte injected, 25 °C, 1:1 Langmuir fit
Settings: not given

“Affibody-BCN/N3-PEG24CO-[N(PN)2][Lys]2[Lys]4[Lys]8[(α-NHGlu-vc-PAB-MMAE)8(ε-NH-COPEG2000)8], G3, Compound 78 (designed binder)” and “Affibody-BCN/N3-PEG24CO-[N(PN)2][Lys]2[Lys]4[Lys]8[(α-NHGlu-vc-PAB-MMAE)8(ε-NH-COPEG1100)8], G3, Compound 77 (designed binder)” are within 1.5-fold of each other in Kd: 36 nM for the first, 50 nM for the second.

“Affibody-BCN/N3-PEG24CO-[N(PN)2][Lys]2[Lys]4[Lys]8[(α-NHGlu-vc-PAB-MMAE)8(ε-NH-COPEG2000)8], G3, Compound 78 (designed binder)” and “Affibody-BCN/N3-PEG24CO-[N(PN)2][Lys]2[Lys]4[Lys]8[(α-NHGlu-vc-PAB-MMAE)8(ε-NH-COPEG1100)8], G3, Compound 77 (designed binder)” are within 1.5-fold of each other in koff: 0.00114 s⁻¹ for the first, 0.0013 s⁻¹ for the second.

“Affibody-BCN/N3-PEG24CO-[N(PN)2][Lys]2[Lys]4[Lys]8[(α-NHGlu-vc-PAB-MMAE)8(ε-NH-COPEG2000)8], G3, Compound 78 (designed binder)” and “Affibody-BCN/N3-PEG24CO-[N(PN)2][Lys]2[Lys]4[Lys]8[(α-NHGlu-vc-PAB-MMAE)8(ε-NH-COPEG1100)8], G3, Compound 77 (designed binder)” are within 1.5-fold of each other in kon: 32000 M⁻¹ s⁻¹ for the first, 25000 M⁻¹ s⁻¹ for the second.

Biological target: T1, HER2 (human epidermal growth factor …)
Experiment: flow cytometry (Cy5), BT-474 cells, 1 h, conjugate at 3 mM (so in the source)
Settings: not given

Compared with B5, B6 is lower in MFI: 915 for the first, 716 for the second.

First: B7
Second: B8
The MFI of the first is lower: 1020 for the first, 1500 for the second.

Going from B9 to B10, the MFI falls from 3100 to 2640.

Biological target: T1, HER2 (human epidermal growth factor …)
Experiment: flow cytometry (Cy5), BT-474 cells, 1 h, conjugate at 6 mM (so in the source)
Settings: not given

First: B5
Second: B6
The MFI of the first is higher: 1460 for the first, 732 for the second.

Compared with B7, B8 is higher in MFI: 1530 for the first, 2170 for the second.

First: B9
Second: B10
The MFI of the first is lower: 4640 for the first, 4910 for the second.

Biological target: T1, HER2 (human epidermal growth factor …)
Experiment: flow cytometry (Cy5), BT-474 cells, 1 h, conjugate at 12 mM (so in the source)
Settings: not given

First: B5
Second: B6
The MFI of the first is higher: 2270 for the first, 1370 for the second.

First: B7
Second: B8
The MFI of the first is lower: 2270 for the first, 3140 for the second.

Compared with B9, B10 is higher in MFI: 5260 for the first, 6550 for the second.

Biological target: T1, HER2 (human epidermal growth factor …)
Experiment: flow cytometry (Cy5), BT-474 cells, 1 h, conjugate at 25 mM (so in the source)
Settings: not given

First: B5
Second: B6
The MFI of the first is higher: 2150 for the first, 1450 for the second.

First: B7
Second: B8
The MFI of the first is lower: 2550 for the first, 3400 for the second.

Compared with B9, B10 is higher in MFI: 4760 for the first, 6490 for the second.

Biological target: T1, HER2 (human epidermal growth factor …)
Experiment: flow cytometry (Cy5), MDA-MB-231 parental cells (HER2 lo, control), 0.5 h
Settings: not given

First: B1
Second: B2
The “percent of cellular association” value of the first is higher: 30.8% for the first, 25.1% for the second.

Going from B3 to B4, the “percent of cellular association” value falls from 20% to 17.5%.

Biological target: T2, ErbB2-ECD
Experiment: SPR, ErbB2-ECD amine-coupled on chip, analyte injected, 25 °C, 1:1 Langmuir fit; affibody dimeric
Settings: not given

For “Affibody protein (HER2, Affibody AB) (designed binder)”, the Kd was 0.266 nM.

“Affibody protein (HER2, Affibody AB) (designed binder)” gave a koff of 0.00051 s⁻¹.

In the case of “Affibody protein (HER2, Affibody AB) (designed binder)”, the kon is reported as 1.9e+06 M⁻¹ s⁻¹.
